# According to patent US20080058636A1 (EPIX PHARMACEUTICALS, published 2008):
# Bridge positions count the residues as written; N and C are the ends. Ends that are not written are not given here.
# Legend:
# [1] = molecular target: T1, rat collagen (acid soluble, type I, rat tail, Upstate 08-115) (rat, UniProt P02454 152-1207; P02466 86-1125); assay: dried collagen assay
# T1 construct: gelled and dried as a fibril film in the dried collagen assay; also called dried rat collagen; insoluble rat collagen
# T1 sequence (P02454 152-1207, chain 1 of 2): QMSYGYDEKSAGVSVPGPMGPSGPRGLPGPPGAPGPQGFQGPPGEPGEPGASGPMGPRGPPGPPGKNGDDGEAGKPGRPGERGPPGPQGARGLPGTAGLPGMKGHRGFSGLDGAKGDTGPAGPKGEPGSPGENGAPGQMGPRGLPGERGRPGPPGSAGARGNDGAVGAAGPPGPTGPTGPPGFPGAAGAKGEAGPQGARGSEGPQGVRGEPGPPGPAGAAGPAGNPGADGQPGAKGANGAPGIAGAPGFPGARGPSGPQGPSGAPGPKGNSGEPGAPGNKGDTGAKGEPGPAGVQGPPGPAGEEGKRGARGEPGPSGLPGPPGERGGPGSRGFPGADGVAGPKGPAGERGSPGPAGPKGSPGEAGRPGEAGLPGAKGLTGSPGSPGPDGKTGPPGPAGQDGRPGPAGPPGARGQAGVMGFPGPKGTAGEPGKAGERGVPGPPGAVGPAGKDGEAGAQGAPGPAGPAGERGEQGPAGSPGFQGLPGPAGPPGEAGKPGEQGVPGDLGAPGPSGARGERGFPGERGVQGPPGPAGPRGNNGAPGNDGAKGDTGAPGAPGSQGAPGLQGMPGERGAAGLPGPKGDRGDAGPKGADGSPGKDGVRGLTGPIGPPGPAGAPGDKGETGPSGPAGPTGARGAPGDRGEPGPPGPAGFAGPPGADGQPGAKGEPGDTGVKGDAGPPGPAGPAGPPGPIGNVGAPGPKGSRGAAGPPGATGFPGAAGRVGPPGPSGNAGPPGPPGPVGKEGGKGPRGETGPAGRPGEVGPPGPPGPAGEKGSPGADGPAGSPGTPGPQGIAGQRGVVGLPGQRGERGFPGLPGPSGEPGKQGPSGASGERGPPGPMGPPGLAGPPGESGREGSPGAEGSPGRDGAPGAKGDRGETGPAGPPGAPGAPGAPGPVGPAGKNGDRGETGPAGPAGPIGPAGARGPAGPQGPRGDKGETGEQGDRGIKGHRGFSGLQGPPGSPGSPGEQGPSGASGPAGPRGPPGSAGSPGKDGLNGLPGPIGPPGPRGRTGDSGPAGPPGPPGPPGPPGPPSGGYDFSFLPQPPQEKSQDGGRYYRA
# T1 sequence (P02466 86-1125, chain 2 of 2): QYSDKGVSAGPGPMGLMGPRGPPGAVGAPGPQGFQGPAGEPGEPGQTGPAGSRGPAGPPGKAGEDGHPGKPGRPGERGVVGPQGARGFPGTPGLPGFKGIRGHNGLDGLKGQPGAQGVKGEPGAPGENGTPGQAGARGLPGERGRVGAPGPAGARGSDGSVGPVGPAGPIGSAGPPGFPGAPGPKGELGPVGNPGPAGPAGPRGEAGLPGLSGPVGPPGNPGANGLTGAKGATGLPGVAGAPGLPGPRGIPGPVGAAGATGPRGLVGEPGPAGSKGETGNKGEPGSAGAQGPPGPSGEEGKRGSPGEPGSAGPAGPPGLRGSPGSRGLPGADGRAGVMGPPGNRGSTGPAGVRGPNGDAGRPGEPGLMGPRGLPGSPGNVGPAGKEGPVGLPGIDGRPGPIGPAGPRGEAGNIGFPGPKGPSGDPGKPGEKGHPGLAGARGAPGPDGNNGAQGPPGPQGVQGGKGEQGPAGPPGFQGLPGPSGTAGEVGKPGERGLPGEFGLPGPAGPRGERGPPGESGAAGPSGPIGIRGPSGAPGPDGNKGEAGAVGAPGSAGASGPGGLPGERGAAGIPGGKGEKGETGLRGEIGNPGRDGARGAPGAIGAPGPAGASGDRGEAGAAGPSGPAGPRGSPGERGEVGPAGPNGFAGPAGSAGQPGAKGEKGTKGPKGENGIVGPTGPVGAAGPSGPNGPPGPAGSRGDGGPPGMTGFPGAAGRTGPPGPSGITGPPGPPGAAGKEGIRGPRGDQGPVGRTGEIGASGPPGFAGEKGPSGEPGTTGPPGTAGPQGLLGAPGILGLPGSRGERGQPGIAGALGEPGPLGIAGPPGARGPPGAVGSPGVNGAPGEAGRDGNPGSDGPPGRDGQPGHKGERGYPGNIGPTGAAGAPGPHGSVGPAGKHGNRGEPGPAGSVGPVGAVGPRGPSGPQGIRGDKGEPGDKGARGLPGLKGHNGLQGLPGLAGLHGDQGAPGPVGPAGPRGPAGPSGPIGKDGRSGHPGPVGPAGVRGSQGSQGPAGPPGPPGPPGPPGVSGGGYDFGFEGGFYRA
# [2] = molecular target: T2, human collagen type I (acid soluble, extracted from placenta, Sigma C7774) (human, UniProt P02452 162-1218; P08123 80-1119); assay: dried collagen assay
# T2 construct: gelled and dried as a fibril film in the dried collagen assay; also called dried human collagen; h-Collagen
# T2 sequence (P02452 162-1218 limits assumed, chain 1 of 2): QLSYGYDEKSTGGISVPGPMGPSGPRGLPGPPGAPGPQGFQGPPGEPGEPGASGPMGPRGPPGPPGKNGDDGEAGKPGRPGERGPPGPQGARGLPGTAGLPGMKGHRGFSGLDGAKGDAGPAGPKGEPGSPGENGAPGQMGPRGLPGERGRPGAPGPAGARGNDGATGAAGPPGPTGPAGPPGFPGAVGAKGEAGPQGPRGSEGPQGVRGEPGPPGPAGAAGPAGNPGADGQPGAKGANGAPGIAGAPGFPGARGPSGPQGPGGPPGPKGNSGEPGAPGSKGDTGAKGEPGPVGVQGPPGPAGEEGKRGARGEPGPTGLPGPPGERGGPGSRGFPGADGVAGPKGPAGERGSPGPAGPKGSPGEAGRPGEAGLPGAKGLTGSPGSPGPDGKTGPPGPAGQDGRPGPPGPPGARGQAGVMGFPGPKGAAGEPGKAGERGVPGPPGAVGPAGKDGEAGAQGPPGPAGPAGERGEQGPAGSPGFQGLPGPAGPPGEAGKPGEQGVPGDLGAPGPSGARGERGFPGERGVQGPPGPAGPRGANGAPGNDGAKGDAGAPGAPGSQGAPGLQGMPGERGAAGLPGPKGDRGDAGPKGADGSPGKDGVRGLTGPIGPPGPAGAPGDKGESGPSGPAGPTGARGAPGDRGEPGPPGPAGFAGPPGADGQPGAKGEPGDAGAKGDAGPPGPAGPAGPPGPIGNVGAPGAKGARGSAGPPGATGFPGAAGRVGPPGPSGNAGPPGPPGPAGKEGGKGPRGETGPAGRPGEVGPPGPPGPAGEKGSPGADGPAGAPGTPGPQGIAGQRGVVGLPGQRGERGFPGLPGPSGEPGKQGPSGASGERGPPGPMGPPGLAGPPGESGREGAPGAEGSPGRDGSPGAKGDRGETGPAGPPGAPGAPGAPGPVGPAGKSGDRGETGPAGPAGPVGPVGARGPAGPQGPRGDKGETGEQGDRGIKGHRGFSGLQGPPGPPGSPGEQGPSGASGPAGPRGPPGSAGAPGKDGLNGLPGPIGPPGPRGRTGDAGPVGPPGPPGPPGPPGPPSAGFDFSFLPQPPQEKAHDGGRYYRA
# T2 sequence (P08123 80-1119 limits assumed, chain 2 of 2): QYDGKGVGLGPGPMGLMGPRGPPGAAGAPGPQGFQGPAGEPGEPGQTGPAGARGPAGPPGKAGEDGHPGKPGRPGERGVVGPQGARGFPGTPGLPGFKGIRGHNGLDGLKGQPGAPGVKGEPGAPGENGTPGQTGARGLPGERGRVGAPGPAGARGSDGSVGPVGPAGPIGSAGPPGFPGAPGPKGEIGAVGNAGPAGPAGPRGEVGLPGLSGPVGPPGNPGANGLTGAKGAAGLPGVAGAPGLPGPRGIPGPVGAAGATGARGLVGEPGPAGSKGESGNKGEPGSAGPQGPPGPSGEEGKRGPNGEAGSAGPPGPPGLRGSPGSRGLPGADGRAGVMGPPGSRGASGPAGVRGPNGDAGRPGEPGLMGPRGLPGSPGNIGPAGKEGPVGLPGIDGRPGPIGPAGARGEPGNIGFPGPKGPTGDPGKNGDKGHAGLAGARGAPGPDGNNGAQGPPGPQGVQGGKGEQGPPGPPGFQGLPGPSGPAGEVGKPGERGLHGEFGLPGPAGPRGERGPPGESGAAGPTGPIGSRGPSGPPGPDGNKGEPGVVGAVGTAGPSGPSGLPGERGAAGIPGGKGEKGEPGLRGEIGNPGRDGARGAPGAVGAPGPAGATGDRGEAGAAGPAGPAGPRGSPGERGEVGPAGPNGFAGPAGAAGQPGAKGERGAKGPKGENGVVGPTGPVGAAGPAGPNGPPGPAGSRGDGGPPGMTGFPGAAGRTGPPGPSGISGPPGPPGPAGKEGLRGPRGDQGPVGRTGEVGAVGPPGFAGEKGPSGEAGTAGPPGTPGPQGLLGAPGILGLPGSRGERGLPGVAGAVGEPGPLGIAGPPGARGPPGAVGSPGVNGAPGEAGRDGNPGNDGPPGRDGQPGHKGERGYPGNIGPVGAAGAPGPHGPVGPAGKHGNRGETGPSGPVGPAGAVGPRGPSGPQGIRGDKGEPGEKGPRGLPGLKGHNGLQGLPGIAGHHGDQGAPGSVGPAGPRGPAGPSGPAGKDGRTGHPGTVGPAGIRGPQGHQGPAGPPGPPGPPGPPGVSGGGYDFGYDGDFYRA
Binder,% Collagen Binding [1] [%],% Collagen Binding [2] [%]
YHASYQAGSWIW (not fully specified) [SEQ ID NO: 111],24,0
YHACYQAGCYIW (disulfide 4-9; not fully specified (C-terminus)) [SEQ ID NO: 107],6,
